The values below come from patent US6579848B1, “Depigmenting activity of agouti signal protein and peptides thereof” (The United States of America as represented by the …, priority 1995, dated 2003).

Data set [1] deals with tyrosinase. Description: DOPA oxidase enzyme assay on extracts of treated melan-a cells. The class given is cell-based, murine. The note with it: extracts of melan-a cells cultured 5 days; 10 nM. How it is done: Assays for melanogenic catalytic activities as described below were carried out at pH 6.8, 37° C. for 60 minutes. (1) Tyrosine hydroxylase activity was measured using the [^3H]tyrosine assay (Hearing and Ekel, 1976; Hearing, 1987). This method specifically measures the tritiated water produced during the hydroxylation of tyrosine to DOPA. (2) DOPA oxidase activity was measured using incorporation of [3-^14C]DOPA into acid-insoluble melanin as detailed previously (Aroca et al., 1993). (3) DOPAchrome tautomerase activity was measured by HPLC as the disappearance of DOPAchrome substrate and the production of DHICA rather than DHI; data are converted to pmol products by comparison with known standards. The HPLC assay was detailed previously (Palumbo et al., 1987; Tsukamoto et al., 1992). (4) DHI oxidase and DHICA oxidase activities were measured by HPLC as the disappearance of these substrates from reaction mixtures compared to controls for spontaneous auto-oxidation; data are converted to pmol by comparison with known standard (Aroca et al., 1993). (5) Melanin production was measured using incorporation of [^14C]tyrosine into acid-insoluble melanin, also as detailed previously (Hearing and Ekel, 1976; Hearing, 1987); pmol melanin produced are calculated from the radioactive product. […]

Data set [2] can be described thus: Retention of activity at 37° in water or tissue culture media. The class given is physicochemical. The text has this: (§1) Recombinant mouse ASP was generated and purified using a baculovirus expression system as described in Ollmann et al. (in preparation). […] The experiment described in FIG. 2 has also been repeated with an ASP preparation ≧99% pure with virtually identical results.

The target of another data set is MC1-R. Nature of the data set: Inhibition of activation of the MC1-R. Format: biochemical. The note with it: preparation ≧90% pure.
Source text: as §1

Data set [3] deals with tyrosinase. Description: Northern blotting of tyrosinase RNA in B16F10 melanoma cells. Particulars: B16F10 murine melanoma cells, 10 nM, 5 days. The class given is cell-based. How it is done:
(§2) The melan-a melanocyte cell line was used as described in Example 1. This clonal line was derived from C57B1 nonagouti black mice. The growth medium was minimum essential medium containing 200 nM TPA. B16F10 melanoma cells were also used to compare the effect of agouti protein with melan-a. These cells were grown in Dulbecco's modified Eagle medium.
(§3) Recombinant agouti protein was purified from baculovirus system by Dr. Michael Ollmann in Dr. Gregory Barsh's laboratory by methods known in the art. 2×10^6 cells were seeded per 15 cm diameter dish. The medium was changed everyday, and fresh agouti protein and/or αMSH added everyday usually at 10 nM. To examine transcriptional regulation, total RNA was isolated and Northern blotting performed by methods described in Example 1. The A26 probe to the MSH-R was provided by Dr. R. Cone and is described in Mountjoy et al. Science 257:1248-1251, 1992. At the translational level, metabolic labeling was used in conjunction with immunoprecipitation as described in Example 1. Western blotting and enzyme assay was used to examine function.
(§4) The effect of agouti protein and MSH observed for melan-a cells was confirmed using B16F10 murine melanoma cells. Similar effects were observed (FIG. 13).

A further data set has as its system MSH receptor. Nature of the data set: Northern blotting of MSH receptor RNA in B16F10 melanoma cells. The class given is cell-based. Particulars: B16F10 murine melanoma cells, 10 nM, 5 days. As for the experimental part: as §2, §3, §4
Another data set concerns melan-a cells. Nature of the data set: Pigmentation and ultrastructure of melan-a cells. The class given is cell-based, murine. As for the experimental part: Cells were harvested, centrifuged for 5 minutes at 14,000 g at 4° C., and fixed for 2 hours at 23° C. in 2% glutaraldehyde-2% paraformaldehyde in 0.1 M sodium cacodylate buffer, pH 7.3; the fixative was then removed and the samples were stored in phosphate-buffered saline containing 2% sucrose at 4° C. Samples were subsequently processed with graded alcohols and embedded in epoxy resin for electron microscopy in the usual manner. Thin sections were stained with uranyl acetate and lead citrate, viewed and photographed with a Zeiss EM10 electron microscope, as previously detailed (Prota et al., 1995).

Data set [4] relates to melan-a murine melanocytes. Nature of the data set: Chemical analysis of eumelanin and pheomelanin contents of melan-a melanocytes. Format: cell-based. Particulars: black melan-a murine melanocytes in vitro. As for the experimental part:
Chemical degradation and analysis of eumelanin and pheomelanin contents were performed and quantitated as previously reported (Ito and Fujita, 1985).

Turning to “α-melanocyte stimulating hormone [MSH, reference compound]”, in the data set with tyrosinase [1], the DOPA oxidase is on record as 197.5 ± 17.4 pmol/μg protein/hr.

B1: agouti protein: Recombinant murine agouti signal protein purified from a baculovirus expression system (protein)
chain: MDVTRLLLATLVSFLCFFTVHSHLALEETLGDDRSLRSDSSMNSLDFSSVSIVALNKKSKKISRKEAEKRKRSSKKKASMKKVARPPPPSPCVATRDSCKPPAPACCDPCASCQCRFFGSACTCRVLNPNC
As a reminder, the Ki is a measure of affinity in units of concentration, obtained from inhibition or displacement. Consider B1, for which the “time for which activity is retained” value in data set [2] is listed as “more than 48 hours”. For the same molecule, in the data set with tyrosinase [1], the DOPA oxidase is −2.6 ± 3.4 pmol/μg protein/hr. The molecule also gave a Ki on MC1-R of 0.22 nM. In addition, the “tyrosinase RNA” value in the data set on tyrosinase [3] is “did not reduce tyrosinase RNA below baseline”. The MSH receptor expression entry in the data set on MSH receptor is “elevated”. The “pigmentation of the cells” value with melan-a cells (black melan-a murine melanocytes in vitro) is “markedly inhibited”. Besides, in the data set with melan-a cells (melan-a cells, 10 nM, 5 days), the “amount of melanosomes (ultrastructural study)” value is listed as “decreased” and the “melanosome structure (ultrastructural study)” value is reported as “pheomelanosome-like structures were found”. Besides, in the data set with melan-a cells (melan-a cells, 10 nM, 5 days incubation), the “color of cell pellet” value was “changed from black to light brown”. In data set [4], the eumelanin production result is reported as “significantly decreased” and the synthesis of pheomelanin entry is reported as “increased”.
